Source: the supplement of paper PMC9170038

System: K4 kissing-loop RNA reporter
Test: apparent KD of K4 kissing-loop reporter; higher = weaker reporter binding
Settings: Eterna round: R107
Procedure: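 RNA-MaP round R107: designed RNA switches with theophylline, tryptophan, arginine or FMN aptamers are transcribed on-chip within common flanks. They are titrated with a labelled K4 kissing-loop RNA reporter in RNA-MaP buffer (100 mM Tris pH 7.5, 80 mM KCl, 4 mM MgCl2), without ligand or with the indicated ligand. Median apparent KD per design.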

[1] = input ligand: theophylline 20 uM
[2] = input ligand: tryptophan 2.4 mM
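Note: bound reporter read as fluorescence of individual clusters on recovered sequencing chips by microscopy, with normalized cluster intensities fitted with a binding model.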

| Sequence | apparent KD of K4 kissing-loop reporter (input ligand: FMN 200 uM) | apparent KD of K4 kissing-loop reporter (input ligand: arginine 13.2 mM) | apparent KD of K4 kissing-loop reporter (input ligand: none) | apparent KD of K4 kissing-loop reporter [1] | apparent KD of K4 kissing-loop reporter [2] |
| --- | --- | --- | --- | --- | --- |
| AAAUAAAAGGCGGCCGCCACUGAACGCCUCCGCGUGGGUAUAUAGUGAUGUUAUAUGGCCGCCUUCAGGACCGGGCCAAAUAAAA [AstrosSSTryB#1] | 458 nM | 220 nM | 339 nM | 274 nM | 373 nM |
| AAAUAAAGCAGUCACCCAGUGAUGUUGGAAGGAGCGUGCGAAAGCACAGGUAGGUCGCCGAUAGGACAAAGUCCAAGUGGCUGCA [#SwitchBubble 30 #K4Early] | 625 nM | 437 nM | 487 nM | 297 nM | 318 nM |
| AAAUCUUUCAGAAGGAGCGUGGAUUAUUCUUAUAUAUUUAUUACGAGUGAUGUUCGUAAUUCACAGGUAGGUCGCUGAUCAAUAA [JR_ExcArginiB_Sub006] | 87.5 nM | 105 nM | 91.1 nM | 109 nM | 89.8 nM |
| AAAUUUGCUCAUGAUACCAGCCAGUGAUGUUGGUUGGUCCACCGUGUCCGAACAUUAAGCGGCCCUUGGCAGCAUGAUGCGCGUA [Ininveaen] | 129 nM | 105 nM | 116 nM | 143 nM | 112 nM |
| AAAUUUUCAAGUGAUACCAGACAUUUUUAUUUCUUUAUUUAUGCUAAGUGAUGUUUAGCAGUCCCUUGGCAGCACUAUUUAAUUA [JR_Nu_SSTheophyB_Sub030] | 127 nM | 174 nM | 141 nM | 231 nM | 144 nM |
| AACACUCAGAGAGUGAUGUUCUCUAAUAAACGAGGACCGGUACGGCCGCCACUCGAAUAAGAGUGAGUCCUACGAAAAGUAGGAC [Omei inspired 5 #OpenEnded] | 790 nM | 726 nM | 1050 nM | 1120 nM | 224 nM |
| AACCGUGUGGCGGCCGCCACUAGUCUCCAGUGAUGUUGGAGAGACCACGUAAGUGGUCUCCAACAUAGGACCGGGCCAUAUGGAA [Same State - Tryptophan B (Freestyle 26)] | 204 nM | 78.5 nM | 106 nM | 132 nM | 259 nM |
| AACCUACGAUCACAAUAGUGAUUGUAGGACUAGGAUAUGCUGAAAAGCAGAAGGAGUGAUGUUCCACUCAUGAAUAACAUGAGAA [FmnAX 4 #OpenEnded #K4Late #CoaxialStacking] | 594 nM | 340 nM | 410 nM | 324 nM | 270 nM |
| AACGCUGGUGAAUAACACUAGCGAAAUUCGCGAGGACCGGUACGGCCGCCACUCGCUAACUGCGAGUGAUGUUCGAUAAUAAAAU [Mat - Mod of OpenEnded 3 - D7] | 174 nM | 125 nM | 197 nM | 280 nM | 122 nM |
| AACGUUUUGAGAAGGAGCGCGUUAAGCAGUGAUGUUGCUUUAUUUUAUCAAAUACAUAUAUCGCAGGUAGGUCGCUCAAUACGUA [JR_Nu_SSArginiB_Sub026] | 304 nM | 218 nM | 253 nM | 283 nM | 230 nM |
| AACGUUUUGUGAAGGAGCGCGAUAAGCAGUGAUGUUGCUUACUUACAAUUUAUAUUUUACACGCAGGUAGGUCGCACAAUACGUA [JR_SSArginiB_Sub017] | 207 nM | 160 nM | 190 nM | 163 nM | 173 nM |
| AACUGGGUUCGUGAUACCAGCUCACACAUGAGUGAUGUUGAUGUAGUGGGCAAAAUGUGGAGCCCUUGGCAGCACUGUGACCACG [XTheo-B3] | 422 nM | 358 nM | 411 nM | 378 nM | 371 nM |
| AACUGUCAAGGACAACAUUACUGCAGUGAUACCAGCAUCGAAAGAUGCCCUUGGCAGCACUAACUUGCAGUGAUGUUGCAAGUAA [BrourdMod 4 - Jieux - Exclusion - Theophylline A] | 313 nM | 245 nM | 256 nM | 225 nM | 264 nM |
| AAGCAGUCACUCGAACCCAUCGAAGAUGGGCGAGGACCGGUACGGCCGCCACUCGGAGUGAUGUUCCGCAGACUGCAAAAUAAAA | 679 nM | 265 nM | 339 nM | 249 nM | 164 nM |
| AAGCAGUCACUCGAAGCCAUCGAAGAUGGGCGAGGACCGGUACGGCCGCCACUCGGAGUGAUGUUCCGAAGACUGCAAAAUAAAA | 512 nM | 669 nM | 498 nM | 508 nM | 567 nM |
| AAGCAGUCAGGAUCGAAGAUCCUGCAAAACCGAGGACCGGUACGGCCGCCACUCGGAGUGAUGUUCCGAAGACUGCAAAAUAAAA [#SwitchBubble 6] | 191 nM | 152 nM | 213 nM | 150 nM | 64.5 nM |
| AAGCAUUCUUCGGAAUGCAGACCCGCUGAGGAGGAUAUGACGAAAGUCAGAAGGUUUCAGUGAUGUUGAGGCCUCCUCAAUGGUC [whbob_Ex_FMNA__2th182] | 305 nM | 256 nM | 293 nM | 285 nM | 291 nM |
| AAGGGCGAGGUAACGUGGAUAUCUCGUCGCAAGGAUAUCUGGAAACAGAGAAGGUGCGACAUCACCGGCAGUGAUGUUGCUGGGC | 298 nM | 185 nM | 233 nM | 227 nM | 181 nM |
| AAGGGCGGAACAACCUCGCCGGAUAGAGAUACCAGCCCAGCAAUGGGCCCUUGGCAGCUCACUGACCUCAGUGAUGUUGAGGUUC [Laar] | 243 nM | 220 nM | 248 nM | 188 nM | 232 nM |
| AAGGUCACUACUACAGUGAUGUUGUGGGAGCAGGAUAUGCAGAAAUGCAGAAGGGCUCGCUCCAAGUGACCGAAUGAAACAUUCA [Omei KL FMN A SS A v1] | 1170 nM | 876 nM | 839 nM | 1210 nM | 938 nM |
| AAGUCAUACAGAAGGAGCGUGUUUUAUAAUUUAUUUUCAUGAUCGAGUGAUGUUCGAUAUACACAGGUAGGUCGCUGUAUAAUAA [JR_SSArginiB_Sub007] | 102 nM | 146 nM | 121 nM | 146 nM | 103 nM |
